The text below walks through data of patent publication US20260001947A1.

The target of this experiment is human PD-L1 extracellular domain protein displayed on the membrane of MC38-PD-L1 cells (human) (UniProt Q9NZQ7). Nature of the experiment: flow cytometry on MC38-PD-L1 cells, directly PE-labelled antibody, 0.5 µl; Blank-PE shows 0.13% in the same gate. In general terms: Flow cytometry measures light scatter and fluorescence of single cells or particles in a stream.
human PD-L1 extracellular domain protein displayed on the membrane of MC38-PD-L1 cells (human), sequence (Q9NZQ7 19-238): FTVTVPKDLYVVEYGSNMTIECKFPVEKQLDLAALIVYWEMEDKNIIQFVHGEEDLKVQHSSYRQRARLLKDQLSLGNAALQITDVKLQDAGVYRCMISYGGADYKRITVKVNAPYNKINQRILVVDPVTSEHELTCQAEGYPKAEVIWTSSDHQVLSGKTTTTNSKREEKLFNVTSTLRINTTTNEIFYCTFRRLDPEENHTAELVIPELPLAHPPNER

Substance “PE anti-human PD-L1 (BioLegend, clone number: 29E-2A3) (antibody)” returned a % of cells in gate M6-2 of 99.4%.
